For the series, the target named is N-NTD (SARS-CoV-2 (Wuhan-Hu-1)) (UniProt P0DTC9). Put plainly: DSF. The note with it: 10 mM Tris-HCl pH 7.4, 150 mM NaCl, 1 mM MgCl2, BLI with 0.05% Tween-20.

In the case of TCGGACATCGGAATGTCTGA [A58-20 T6-to-A], the binding signal is -0.5 C (Tm shift).

The values are drawn from publication PMC11602162.
